# Results taken from the supplement of paper PMC10126150.
# ± gives the standard deviation of the averaged measurements.
# System: ATP
# Assay: switch fluorescence ratio, 500 uM ATP over buffer (Cy3 cluster intensity, sum of 5 cycles each) (fold (ratio)); higher = stronger signal-on switching upon ATP binding; sequences stand for … in TCGTCGGCAGCGTCAGATGTGTATAAGAGACAGTTTTTTTTTTTTTTTTTTTTTTTTT…TC
# Conditions: aptamer strand: ATP DNA aptamer (quencher-CACCTGGGGGAGTATTGCGGAGGAAGG + anchor), 100 nM annealed; ATP concentration: 500 uM
# Method in brief: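 Between each of five buffer/ATP cycles, the flow-cell was stripped with NaOH and re-annealed. Each cycle imaged Cy3-labelled switching-strand clusters, annealed to 100 nM quencher-labelled ATP aptamer on a modified Illumina MiSeq flow-cell, first in selection buffer and then after 15 min with 500 uM ATP at 22 °C. The fluorescence ratio is summed target-cycle over summed buffer-cycle Cy3 intensity per cluster, averaged per switch-domain sequence, with clusters outside 100-1000 RFU excluded.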
# 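Also: ATP exposure 15 min at 22 °C before imaging.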
sequence,measurement,value
TTTGCGTTCA,switch fluorescence ratio,1.02 ± 0.078
TAAGTTTGTG,switch fluorescence ratio,0.996 ± 0.05
GGGGATAAGC,switch fluorescence ratio,0.992 ± 0.048
TTTTGATTCT,switch fluorescence ratio,1.01 ± 0.028
GAGCGAGGGG,switch fluorescence ratio,0.9836 ± 0.0074
TTGGGGTTAA,switch fluorescence ratio,1.03 ± 0.058
AAGCGGGCCT,switch fluorescence ratio,1.02 ± 0.026
CCAGATTACT,switch fluorescence ratio,1.01 ± 0.015
GGATAAATGC,switch fluorescence ratio,1.02 ± 0.043
AGATTGAATT,switch fluorescence ratio,1.02 ± 0.062
TAAACTTG,switch fluorescence ratio,1.04 ± 0.086
TAATAGGAAG,switch fluorescence ratio,1.26 ± 0.43
TTGATTGGGC,switch fluorescence ratio,0.989 ± 0.025
AGACGCTTG,switch fluorescence ratio,0.9961 ± 0.0042
TAGGTTTAGT,switch fluorescence ratio,0.9841 ± 0.0094
ATGAGGACCC,switch fluorescence ratio,0.982 ± 0.022
ATCTGTGGTT,switch fluorescence ratio,0.978 ± 0.023
CGGGGTAGTT,switch fluorescence ratio,1.01 ± 0.004
TACGCCGGTA,switch fluorescence ratio,0.961 ± 0.032
GTGGATCAAA,switch fluorescence ratio,1.02 ± 0.049
AGTGTTGGCC,switch fluorescence ratio,1.023 ± 0.0089
CTCATAATTT,switch fluorescence ratio,0.993 ± 0.037
CGGGGCACTG,switch fluorescence ratio,0.997 ± 0.018
TTCGTGCCAG,switch fluorescence ratio,1.01 ± 0.043
AGAGGGTGAC,switch fluorescence ratio,1.01 ± 0.016
TGATAAATAC,switch fluorescence ratio,1.33 ± 0.069
TGGGTTTATT,switch fluorescence ratio,0.984 ± 0.014
GTGGGGTTTC,switch fluorescence ratio,0.977 ± 0.032
GTGCTTACGA,switch fluorescence ratio,1.068 ± 0.01
GCCTGTGGGA,switch fluorescence ratio,1.01 ± 0.035
TCGGGGAAAG,switch fluorescence ratio,1.04 ± 0.082
CACCGGTTCT,switch fluorescence ratio,1.03 ± 0.011
CGATAGGTTT,switch fluorescence ratio,1 ± 0.019
AGGGACAGAC,switch fluorescence ratio,1.17 ± 0.054
ATTCTCACGT,switch fluorescence ratio,1.06 ± 0.021
TTTGGGGGAT,switch fluorescence ratio,1.02 ± 0.1
GTAGGGGGGT,switch fluorescence ratio,1.07 ± 0.21
TAGGTGGCGT,switch fluorescence ratio,1.006 ± 0.0028
TTGAGGTTGG,switch fluorescence ratio,1 ± 0.026
GCGTGAGGCG,switch fluorescence ratio,1.01 ± 0.02
TTAAAGCGCG,switch fluorescence ratio,1.04 ± 0.024
GGTTTTGTGT,switch fluorescence ratio,0.962 ± 0.038
TTTCGGAGTT,switch fluorescence ratio,1.05 ± 0.071
CATTGTTTTG,switch fluorescence ratio,0.9676 ± 0.0041
AGGCATTGGC,switch fluorescence ratio,0.997 ± 0.048
AGAATAGTCA,switch fluorescence ratio,1 ± 0.037
GGGCTGATAG,switch fluorescence ratio,1.01 ± 0.025
TGCATACAGT,switch fluorescence ratio,1.03 ± 0.046
AGGGTTTTCT,switch fluorescence ratio,1 ± 0.012
TTCCGGGGCC,switch fluorescence ratio,0.9978 ± 0.0032
CTGGCCGTTT,switch fluorescence ratio,1.016 ± 0.01
TGTTTTTCTG,switch fluorescence ratio,0.968 ± 0.039
GACAAGTATT,switch fluorescence ratio,1.01 ± 0.013
CGAGGTGGGT,switch fluorescence ratio,1.01 ± 0.049
AGTAGGGTTG,switch fluorescence ratio,0.957 ± 0.011
TTTTGGACGC,switch fluorescence ratio,1.26 ± 0.43
AGTACATGAT,switch fluorescence ratio,1.02 ± 0.025
TGCAAGGTCG,switch fluorescence ratio,1.03 ± 0.031
GTGTTGAGAA,switch fluorescence ratio,0.98 ± 0.015
AGGGATGTAA,switch fluorescence ratio,0.992 ± 0.012
GGTGTTGGCT,switch fluorescence ratio,1.02 ± 0.059
AGTAAGCGGC,switch fluorescence ratio,1.004 ± 0.0094
GGGTTGGGGC,switch fluorescence ratio,0.999 ± 0.049
TATGGCGACA,switch fluorescence ratio,1.01 ± 0.087
TTCGTTCCAT,switch fluorescence ratio,0.986 ± 0.012
AAGCTCGACG,switch fluorescence ratio,0.9695 ± 0.0026
AATGGGTATT,switch fluorescence ratio,0.987 ± 0.026
ACCGGGGGGG,switch fluorescence ratio,1 ± 0.035
TAAGTTATAG,switch fluorescence ratio,1.02 ± 0.042
TATTTTGGGA,switch fluorescence ratio,1.02 ± 0.021
TTTGGAAGCC,switch fluorescence ratio,1 ± 0.041
TAGCTCCGGG,switch fluorescence ratio,1.055 ± 0.0063
GTGGTCGGGT,switch fluorescence ratio,0.974 ± 0.044
TTATAGATGG,switch fluorescence ratio,0.971 ± 0.077
GGGAGCCTTC,switch fluorescence ratio,1.01 ± 0.031
ATGTTATTG,switch fluorescence ratio,0.973 ± 0.031
TTTTGGCGTA,switch fluorescence ratio,1.04 ± 0.037
TACCTAGGGG,switch fluorescence ratio,1.06 ± 0.039
GTTGAGGGTC,switch fluorescence ratio,0.993 ± 0.021
TTAGGTTACT,switch fluorescence ratio,1.028 ± 0.0039
GGGTACAGGA,switch fluorescence ratio,0.99686 ± 5.1e-05
GGGCAGGTAG,switch fluorescence ratio,1.03 ± 0.031
ATCTGGGGTA,switch fluorescence ratio,0.972 ± 0.034
TGATAATTTA,switch fluorescence ratio,1.06 ± 0.016
ATGGTCTTAT,switch fluorescence ratio,0.997 ± 0.014
GAAAAGGGAG,switch fluorescence ratio,0.974 ± 0.032
AGCGACCCGG,switch fluorescence ratio,1.08 ± 0.033
GGGAGTGATG,switch fluorescence ratio,0.986 ± 0.019
GGAATCTTTT,switch fluorescence ratio,1.08 ± 0.085
TTTTGAATCT,switch fluorescence ratio,0.953 ± 0.033
AGTTGTTAGT,switch fluorescence ratio,0.969 ± 0.021
AGGTTGTTTG,switch fluorescence ratio,1.01 ± 0.031
ATAGTATAGA,switch fluorescence ratio,1.01 ± 0.047
ACGGGCTGGG,switch fluorescence ratio,1.1 ± 0.02
ATTAGTTGTG,switch fluorescence ratio,0.976 ± 0.011
GAATTTGGGT,switch fluorescence ratio,0.98 ± 0.034
GAGTAACTCG,switch fluorescence ratio,1.007 ± 0.0067
ATTTGTCAGA,switch fluorescence ratio,0.98 ± 0.015
GGGGTGGTTG,switch fluorescence ratio,0.986 ± 0.036
GGTGGATGCC,switch fluorescence ratio,1.02 ± 0.04
AGCTAGGGGA,switch fluorescence ratio,1.08 ± 0.077
TGAGGGGTTG,switch fluorescence ratio,1 ± 0.036
TCATTTTCGG,switch fluorescence ratio,0.986 ± 0.025
TTTCGGATGC,switch fluorescence ratio,1.22 ± 0.26
AGGGGGGTCT,switch fluorescence ratio,1.01 ± 0.04
TTTGGCCTAG,switch fluorescence ratio,1.02 ± 0.041
TTAAATGGCA,switch fluorescence ratio,0.993 ± 0.033
GCAAGGCGGA,switch fluorescence ratio,1.03 ± 0.0091
TTAGACCGAA,switch fluorescence ratio,1.031 ± 0.0088
CGGCAGGTTT,switch fluorescence ratio,0.992 ± 0.016
TGCTTGTCTC,switch fluorescence ratio,1 ± 0.013
CAATTTAATG,switch fluorescence ratio,0.999 ± 0.019
TTTAAAAGGG,switch fluorescence ratio,1 ± 0.027
ACTGGGTCGA,switch fluorescence ratio,1.04 ± 0.034
ATTGTTCAAA,switch fluorescence ratio,1 ± 0.015
TTTTTGGCGC,switch fluorescence ratio,1.01 ± 0.032
CGAAGGGTAA,switch fluorescence ratio,1.02 ± 0.028
ACTTGGGGGT,switch fluorescence ratio,1.02 ± 0.016
TGGCGCATAA,switch fluorescence ratio,1.25 ± 0.059
TACTGGGCTT,switch fluorescence ratio,1.024 ± 0.0014
GGGTCAGTAG,switch fluorescence ratio,1.032 ± 0.0087
TCAATCTTCT,switch fluorescence ratio,1.032 ± 0.0095
TGAAAGCGCC,switch fluorescence ratio,1.07 ± 0.03
AGGTTGGGAA,switch fluorescence ratio,0.944 ± 0.07
ATATCCGGTT,switch fluorescence ratio,1 ± 0.041
GGGTAACGGA,switch fluorescence ratio,1.03 ± 0.04
TGACTTGGAC,switch fluorescence ratio,1.02 ± 0.013
GTGTCTGGGA,switch fluorescence ratio,0.985 ± 0.024
GTGATCCTTC,switch fluorescence ratio,1.03 ± 0.034
TGCATGGCAA,switch fluorescence ratio,1.03 ± 0.013
TGGGAAATAT,switch fluorescence ratio,0.9726 ± 0.0072
TTGACTTGTT,switch fluorescence ratio,1.02 ± 0.068
GCTTGGGTTC,switch fluorescence ratio,1 ± 0.018
ACTTATTAAA,switch fluorescence ratio,1.03 ± 0.034
TGGCTAGGAC,switch fluorescence ratio,1.01 ± 0.04
GGCAGTTTGG,switch fluorescence ratio,1.01 ± 0.023
CTTTTTTAAT,switch fluorescence ratio,0.982 ± 0.012
TCCAGGGAAT,switch fluorescence ratio,1.04 ± 0.029
CAACTGTTTT,switch fluorescence ratio,1.04 ± 0.1
GGGGTTTATG,switch fluorescence ratio,0.975 ± 0.028
ACTGTGTGTT,switch fluorescence ratio,1.01 ± 0.025
AAGGGATTGC,switch fluorescence ratio,0.995 ± 0.053
TTTGACTTTT,switch fluorescence ratio,0.994 ± 0.028
CCATTCTTGG,switch fluorescence ratio,0.977 ± 0.018
AGTGTGGTGC,switch fluorescence ratio,0.9778 ± 0.0073
GAAAGTGCAA,switch fluorescence ratio,1.09 ± 0.02
CTAGCATCCG,switch fluorescence ratio,1.03 ± 0.016
GAGAAACATT,switch fluorescence ratio,1.06 ± 0.029
GACGTTATGG,switch fluorescence ratio,1.04 ± 0.016
CGGGAAGGCT,switch fluorescence ratio,1.06 ± 0.13
TTTATATGGT,switch fluorescence ratio,0.988 ± 0.028
CCTGGATTTC,switch fluorescence ratio,1.01 ± 0.077
ATAATGCAGC,switch fluorescence ratio,0.988 ± 0.019
CGGGATTTTT,switch fluorescence ratio,0.973 ± 0.054
AGACTGTGGC,switch fluorescence ratio,0.991 ± 0.0061
GGGGACCCTG,switch fluorescence ratio,0.974 ± 0.029
CGAGGATTTC,switch fluorescence ratio,0.9885 ± 0.0094
